Experiment: yeast display, Sf9 membrane polyspecificity reagent, FACS + sequencing; frameworks hold sequencing errors
In short: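 Galactose induction of a Saccharomyces cerevisiae BJ5465 synthetic nanobody display library ran 36–48 hours. The cells were then stained for 1 hour at 4 °C with 10% biotinylated, detergent-solubilized Sf9 membrane reagent, pulled down on streptavidin microbeads and FACS-sorted into low and high (top ~1%) gates on expression and reagent-binding fluorescence. Labels for polyreactivity follow the gate of origin.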

Sequence	polyreactivity (PSR sort gate)
QVQLVESGGGLVQAGGSLRLSCAASGSTFFVYDMGWYRQAPGKERELVAAISSDTSTNYADSVKGRFTISRDNAKNTVYLQMNSLKPEDTAVYYCNADSYWEYDYWGQGTQVTVSS	low polyreactivity
QVQLVESGGGLVQAGGSLRLSCAASGSTFFYNAMGWYIQAPGKERELVAAITVTGTSTYYADSVKGRFTISRDNAKNTVYLQMNSLKPEDTGVYYCNTSLKRRRLRFNYWGQGTQVTVSS	low polyreactivity
QVQLVESGGGLVQAGGSLRLSCAASGSTFFYYAMGWYRQAPGKERELVARITRGGGSTNYADSVKGRFTISRDNAKNTVYLQMNSLKREDTAVYYCAKRRKVTYDYWGQGTQVTVSS	high polyreactivity
QVQLVESGGGLVQAGGSLRLSCAASGSTFFYYAMGWYRQAPGKERELVATIRGSAGRTYYADSVKGRFTISRDNAKNTVYLQMNSLKPEDTAVYYCARRYWPGSAYWIYDYWGQGTQVTVSS	high polyreactivity
QVQLVESGGGLVQAGGSLRLSCAASGSTFGDNAMGWYRQAPGKERELVAAITSVGTTYYADSVKGRFTISRDNAKNTVYLQMNSLKPEDTAVYYCNAEYVWDDYFEFDYWGQGTQVTVSS	low polyreactivity
QVQLVESGGGLVQAGGSLRLSCAASGSTFGDYAMGWYRQAPGKERELVAAISVRGGSTYYADSVKGRFTISRDYAQNTVYLQMNSLKPEDTAVYYCNKDLYRYPGYDSWGQGTQVTVSS	high polyreactivity
QVQLVESGGGLVQAGGSLRLSCAASGSTFGENAMGWYRQAPGKERELVAAISSGGSTNYADSVNGRFTISRDNAQNTVYLQMNSLQPEDTAVYYCNRYPVRDTGGYWGQGTQVTVSS	low polyreactivity
QVQLVESGGGLVQAGGSLRLSCAASGSTFGFNGMGWYRQAPGKERELVAAIRSSGGSTYYADSVKGRFTISRDNAKNTVYLQMNSLKPEDTAVYYCAADYYTYGFANWYLWYDYWGQGTQVTVSS	high polyreactivity
QVQLVESGGGLVQAGGSLRLSCAASGSTFGFYAMGWYRQAPGKERELVAAIDSGGSTYYADSVKGRFTISRDNAKNTVYLQMNSLKPEDTAVYYCAVRHRYTRAYWGRDYWGQGTQVTVSS	low polyreactivity
QVQLVESGGGLVQAGGSLRLSCAASGSTFGFYAMGWYRQAPGKERELVAAISSSGSTYYADSVKGRFTISRDNAKNTVYLQMISLKPEDTAVYYCAAQPGYYDYDYWGQGTQVTVSS	low polyreactivity
QVQLVESGGGLVQAGGSLRLSCAASGSTFGGNAKGWYRQAPGKERELGAAISSSGGSTYYADSVKGRFTLSRDNAKNTVYLQMNSLKPEDTAVYYCAALYHWTYDYWGQGTQVTVSS	low polyreactivity
QVQLVESGGGLVQAGGSLRLSCAASGSTFGGNAMGWYRPAPGKERELVAGITSSGTSTYYADSVKGRFTISRDNAKNTVYLQMNSLKPEDTAVYYCATDEADESYGFELFDYWGQGTQVTVSS	low polyreactivity
QVQLVESGGGLVQAGGSLRLSCAASGSTFGGNAMGWYRQAPGKERELVAAITVGGDSPYYADSVKGRYTISRDNAKNTVYLQMNSLKPEDTADYYCAARHYWWYDYWGQGTQVTVSS	low polyreactivity
QVQLVESGGGLVQAGGSLRLSCAASGSTFGGNAMGWYRQAPGKERELVAVISKRGGSTYYADSVKGRFTISRDNAKNTVYLQMNSLKAEDTAVYYCAATYSRYWSPTYDYWGEGTQVTVSS	high polyreactivity
QVQLVESGGGLVQAGGSLRLSCAASGSTFGGYAMGWYRPAPGKERELVAAINRSGARTYYADSVKGRFTISRDNAKNTVYLQMNSLKPEDTAVYYCNKAQGSHGAYDYWGQGTQVTVSS	high polyreactivity
QVQLVESGGGLVQAGGSLRLSCAASGSTFGGYAMGWYRQAPGKERELVAAISSGGSTYYADSVKGRFTISRDNAKNTVYLQMNSLKPEDTAVYYCAADTYAHWGYYGSYYRDDYWGQGTQVTVSS	low polyreactivity
QVQLVESGGGLVQAGGSLRLSCAASGSTFGGYAMGWYRQAPGKERELVATITGGGSTNYADSVKGRFTISRDNAKNTVYLQMNSLKPEDTAVYYCAATEKYQYKVYYDPVGAYDYWGQGTQVTVST	low polyreactivity
QVQLVESGGGLVQAGGSLRLSCAASGSTFGHNAMGWYRQAPGKERELVAAIDSGDGTTYADSVKGRFTISRDNAKNTVYLQMNSLKPEDTAVYYCAATTDRAEDDDNIGGYWGQGTQVTVSS	low polyreactivity
QVQLVESGGGLVQAGGSLRLSCAASGSTFGIYAMGWYRQAPGKERELVATISWGGGDTYYADSVKGRFTISRDNAKNTVYLQMNSLKPEDTAVYYCAADLWYGKTSGSTTPDPYDYWGQGTQVTVSS	low polyreactivity
QVQLVESGGGLVQAGGSLRLSCAASGSTFGIYARGWYIQAPGKEWDLVAAITWIGSDTYYADSVKGRFTISRDNAKNTVYLQMISLKPEDTAVYYCNAVKLLGTRGYGYWGQGTQVTVSS	high polyreactivity
QVQLVESGGGLVQAGGSLRLSCAASGSTFGKNAMGWYRQAPGKERELVAAISRSGGRTYYADSVKGRFTISRDNAKNTVYLQMNSLKPEDPAVYYCAREWYTAGSGDYWGQGTQVTVSS	low polyreactivity
QVQLVESGGGLVQAGGSLRLSCAASGSTFGKNAMGWYRQAPGKERELVASITWRGGSTYYADSVKGRFTISRDNAKNTVYLQMNSLKPEDTAVYYCATKWHIHIGSYKYYYWGHGTQVTVSS	low polyreactivity

Sequence	polyreactivity (PSR sort gate)
QVQLVESGGGLVQAGGSLRLSCAASGSTFGKYAMGWYRPAPGKERELVAGITYSGGSTYYADSVKGRFTISRDNAKNTVYLQMNSLKPEDTAVYYCAADGSYYTDFVASKYDYWGQGTQVTVSS	low polyreactivity
QVQLVESGGGLVQAGGSLRLSCAASGSTFGKYAMGWYRQAPGKERELVASISRSGASTYYADSVKGRFTISRDNAKNTVYVQMNSQKPEDTAVYYCNKARNPEGYWRYDYWGQGTQVTVSS	high polyreactivity
QVQLVESGGGLVQAGGSLRLSCAASGSTFGLNAMGWYRQAPGKERELVAAITRSDITNYADSVKGRFTISRDNAKNTVYLQMNSLKPEDTAVDYCAARGLWPYDYWGQGTQVTVSS	low polyreactivity
QVQLVESGGGLVQAGGSLRLSCAASGSTFGLYAMGWYRQAPGKERELVAAITRGGVTDFADCVKGRFTFSRDNAKYTVYLQMNSLKPEDTAVYYCAAQYKRYHGLFGFWGQGTQVTVSS	high polyreactivity
QVQLVESGGGLVQAGGSLRLSCAASGSTFGLYGMGWYRQAPGKDRELVAAITWSGGSTYYADSVKGRFTISRDNAKNTVYLQMNSLKPEDTAVYYSNADYYYWFSYGIGDNEYDYWGQGTQVTVSS	low polyreactivity
QVQLVESGGGLVQAGGSLRLSCAASGSTFGNNTMGWNRQSPGKEREFVAAITESGGGTYADSVKGRFTISRDNAKNTVYLQLNSLKPEDTAVYYCAAVWYIWPFAFYDWAQGTQVTVSS	high polyreactivity
QVQLVESGGGLVQAGGSLRLSCAASGSTFGNNTMGWYRQAPGKEREFVAAITESGGGTYADSVKGRFTISRDNAKNTVYLQMNSLKPEDTAVYYCAAVWYIWPFAFYYWGQGTQVTVSS	high polyreactivity
QVQLVESGGGLVQAGGSLRLSCAASGSTFGNYAMGGYRQAPGKERELVAVSTSAGSTYYADSVKGRFTISRDNAKNTVYLQMNSLKPEDPAVYYCNTGKHVRYYYWGQGTQVTVSS	low polyreactivity
QVQLVESGGGLVQAGGSLRLSCAASGSTFGPNAMGWYRQAPGKERELVATISFRGGTTYYADSVKGRFTISRDHAKNTVYLQMNSLKPEDTAVYYCAVKVGYVRLLYHYYYWGQGTQGTVSS	high polyreactivity
QVQLVESGGGLVQAGGSLRLSCAASGSTFGPNTMGWYRQAPGKERELVAAITSTGSTYYADSVKGRFTISRDNGKNTVYFEMNILLPEDTAVYYCAARRYYGVYYAFYYWGQGTQVTVSS	high polyreactivity
QVQLVESGGGLVQAGGSLRLSCAASGSTFGPYAMGWYRQAPGKERELVAAIRSDGGTYYADSVKGRFTISRDNAKNTVYLQMNSLKPEDTAVYYCATRPINSYYDHDSWGQGTQVTVSS	high polyreactivity
QVQLVESGGGLVQAGGSLRLSCAASGSTFGPYVMGGYRQAPGKERELVAVISGGSTDYADSVKGRFTISRDNAKNTVYLQMNSLKPEDTAVYYCNAEYYFYLSPTVYLYDYWGQGTQVTVSS	high polyreactivity
QVQLVESGGGLVQAGGSLRLSCAASGSTFGQYVMGWYRQAPGKERELVAAITYSGGSTYYADSVKGRFTISRDNAKNTVYLQMNSLKPEDTAVYYCAARGRRDGYSRVPRGYWGQGTQVTVSS	high polyreactivity
QVQLVESGGGLVQAGGSLRLSCAASGSTFGRNAMGWYRQAPGKERELVAAISNGGSTNYADSVKGRFTISRDNAKNTVYLQMNSLNPEDTAVYYCNRRVPYSFYSRGYYYWGQGTQVTVSS	high polyreactivity
QVQLVESGGGLVQAGGSLRLSCAASGSTFGRNAMGWYRQAPGKERELVAAISWSASRTYYADSVKGRFTISRDNAKNTVYLQMNSLIPDDTAVYYCAAEYDVGYFGYEYWGQGTQVTVSS	high polyreactivity
QVQLVESGGGLVQAGGSLRLSCAASGSTFGRNAMGWYRQAPGKERELVAAITASGGTTYYADSVKGRFTISRDNAKNTVYLQMNSLKPEDTAVYYCARAGHFSFKDDYWGQGTQVTVSS	low polyreactivity
QVQLVESGGGLVQAGGSLRLSCAASGSTFGRNAMGWYRQAPGKERELVAAITASGGTTYYADSVKGRFTISRDNAKNTVYLQMNSLKPEETAVYYCARAGHFSFKYDYWGQGTQVTVSS	low polyreactivity
QVQLVESGGGLVQAGGSLRLSCAASGSTFGRNTMGWYRKAPGKERELVASITRSSTSTNYADSVKGRFTISRDNAKNTVYLQMNSLKPEDTAVYYCAARALRTDRSPVGSHEYWGQGTQVTVSS	low polyreactivity
QVQLVESGGGLVQAGGSLRLSCAASGSTFGRNTMGWYRPAPGKERELVAAITAGDTTTYADSVKGRFTISRDNAKNTDYLQMKSLKREDTAVYYCAVDPVRGRDYSWMDYWGQGSQVTVSS	low polyreactivity
QVQLVESGGGLVQAGGSLRLSCAASGSTFGRNVMGWYRQAPGKERELVAAISIRGGSTYYADSVKGRFTISRDNAKNTVYLQMNSLKPEDTAVYYCARDYPTDAYDYWGQGTQVTVSS	low polyreactivity
QVQLVESGGGLVQAGGSLRLSCAASGSTFGRYAMGWYRQAPGKERELVAAITRSGGRTYYADSLKGRFTISRDNAKNTVYLQMNSLKPEDTAVYYCAAVGNLYYTSHWQYDYWGQGTQVTVSS	high polyreactivity

— the nanobody polyreactivity screen of Harvey et al. (2022)
